Experimental data: US12090209B2, “Twin base linkers for virus inactivation” (priority 2020, dated 2024)
Where no end group is shown, it is not given here.

Target: heat-inactivated SARS-CoV-2 spike (S) protein (Severe acute respiratory syndrome coronavirus 2, UniProt P0DTC2)

Substance: TBL-SADE: TBS monomer of Formula 1 wherein L=SADE (SEQ ID NO:2) peptide, no further targeting moieties (also: TBS monomer of Formula 1, L = SADE, functionalized)
- binding to SARS-CoV-2 spike (S) protein: confirmed binding
